Experimental data reported in US10400249B2, “HPPD variants and methods of use” (priority 2014, dated 2019).
Residue numbers refer to the chain shown, from its start. Numbers in names are those of the source.

B1: K131: PfHPPD variant E335P, G336Y, K339A, A340Q (protein)
chain: MADLYENPMGLMGFEFIEFASPTPGTLEPIFEIMGFTKVATHRSKNVHLYRQGEINLILNNEPNSIASYFAAEHGPSVCGMAFRVKDSQKAYNRALELGAQPIHIDTGPMELNLPAIKGIGGAPLYLIDRFGEGSSIYDIDFVYLEGVERNPVGAGLKVIDHLTHNVYRGRMVYWANFYEKLFNFREARYFDIKGEYTGLTSKAMSAPDGMIRIPLNEESSKGAGQIEEFLMQFNGEGIQHVAFLTDDLVKTWDALKKIGMRFMTAPPDTYYEMLEGRLPDHGEPVDQLQARGILLDGSSVEGDKRLLLQIFSETLMGPVFFEFIQRKGDDGFGPYNFAQLFESIERDQVRRGVLTAD
modifications: HPPD variant - K131
notes: PfHPPD variant E335P, G336Y, K339A, A340Q
B2: K408: PfHPPD variant A188G, R189D, P215N, E335P, G336F, A340E (protein)
chain: B1 chain with A188G, R189D, P215N, Y336F, A339K, Q340E
modifications: HPPD variant - K408
notes: PfHPPD variant A188G, R189D, P215N, E335P, G336F, A340E
B3: K255: PfHPPD variant P215A, E335P, G336F, A340E (protein)
chain: B1 chain with P215A, Y336F, A339K, Q340E
modifications: HPPD variant - K255
notes: PfHPPD variant P215A, E335P, G336F, A340E
B4: C959: reference PfHPPD mutant E335P (protein)
chain: B1 chain with Y336G, A339K, Q340A
modifications: HPPD variant - C959
B5: PfHPPD: wild-type Pseudomonas fluorescens HPPD, reference protein (protein)
chain: B1 chain with P335E, Y336G, A339K, Q340A
modifications: Pseudomonas Fluorescens
B6: K132: PfHPPD variant E335P, G336Y, A340E (protein)
chain: B1 chain with A339K, Q340E
modifications: HPPD variant - K132
notes: PfHPPD variant E335P, G336Y, A340E
B7: K407: PfHPPD variant A188G, R189E, P215N, E335P, G336F, A340E (protein)
chain: B1 chain with A188G, R189E, P215N, Y336F, A339K, Q340E
modifications: HPPD variant - K407
notes: PfHPPD variant A188G, R189E, P215N, E335P, G336F, A340E
B8: K299: PfHPPD carrying only the P215L mutation, used as a second reference (protein)
chain: B1 chain with P215L, P335E, Y336G, A339K, Q340A
modifications: HPPD variant - K299
B9: K405: PfHPPD variant A188G, R189C, P215A, E335P, G336F, A340E (protein)
chain: B1 chain with A188G, R189C, P215A, Y336F, A339K, Q340E
modifications: HPPD variant - K405
notes: PfHPPD variant A188G, R189C, P215A, E335P, G336F, A340E
B10: K203: PfHPPD variant P215L, E335P, G336Y, A340E (protein)
chain: B1 chain with P215L, A339K, Q340E
modifications: HPPD variant - K203
notes: PfHPPD variant P215L, E335P, G336Y, A340E
B11: K137: PfHPPD variant P215L, E335P, G336Y (protein)
chain: B1 chain with P215L, A339K, Q340A
modifications: HPPD variant - K137
notes: PfHPPD variant P215L, E335P, G336Y
B12: K406: PfHPPD variant A188G, R189G, P215N, E335P, G336F, A340E (protein)
chain: B1 chain with A188G, R189G, P215N, Y336F, A339K, Q340E
modifications: HPPD variant - K406
notes: PfHPPD variant A188G, R189G, P215N, E335P, G336F, A340E

Assays:
[1] = tested on: Pseudomonas fluorescens HPPD protein; test: OD assay: HPPD activity and pI50 from HPP remaining after derivatisation with DNP; assay type: biochemical; conditions: for Activity DeltaE/24 min μg Protein: HPPD enzyme activity of the clone; for tolerance (pI50) DKN: inhibitor diketonitrile (DKN), negative log of molar concentration; for tolerance (pI50) MST: inhibitor mesotrione (MST); for tolerance (pI50) TBT: inhibitor tembotrione (TBT); for tolerance (pI50) Cmpd. 2: inhibitor Cmpd. 2
Method: (§1) HPPD proteins were produced and purified as described in WO2011/076882. The activity of HPPD proteins in absence or presence of HPPD inhibitors was determined using either the so called OD assay or the HGD assay.
(§2) • a) The OD assay: The HPPD activity was determined colourimetrically by measuring the amount of HPP remaining in the assay mixture at the end of the incubation period after derivatisation of HPP with 2,4-dinitrophenylhydrazine (DNP) to form an amber-brown colored 2,4-dinitrophenylhydrazone under alkaline conditions. The assay was carried out at room temperature in Greiner F-bottom 96 well microplates. The assay mixture contained 50 mM Tris-HCl pH 7.8, 0.5 mM HPP, 10 mM ascorbate, 650 units of catalase and appropriate amounts of purified HPPD enzyme in a total assay volume of 100 μl. The reaction was started by the addition of enzyme. After an incubation time of 24 minutes, the reaction was stopped by the addition of 50 μl of a solution of 0.04% DNP dissolved in 3.8 N HCl. After a further 15-minute incubation period 100 μl of a 5 N KOH solution was added to the reaction mixture and the amount of unconsumed HPP was measured photometrically at 405 nm. Enzyme activity was calculated as the difference in E405 between assays lacking enzyme (negative control) and the enzyme containing assays (ΔE405=E405(negative control)−E405). Enzyme activity (nmol substrate consumed per min) was calculated from a calibration curve generated from HPP. pI50-values (the negative log value of the concentration of inhibitor necessary to inhibit 50% of the enzyme activity in molar concentration were determined from dose-response plots of HPPD activity versus inhibitor concentration tested (5.0×10^−6, 1.0×10^−5, 2.5×10^−5, 4.0×10^−5, 7.0×10^−5, 1.0×10^−4, 2.0×10^−4 and 5.0×10^−4M) using the 4 Parameter Logistic Model or Sigmoidal Dose-Response Model of the ID Business Solutions Ltd. XLfit software suite. The result “>5.6” means that the inhibition at the lowest inhibitor concentration tested was higher than 85% and the pI50-value could therefore not be precisely calculated within in the range of concentration of inhibitor tested. The result “<2.5” means that the inhibition at the highest inhibitor concentration tested was lower than 25% and the pI50-value could therefore not be precisely calculated within in the range of concentration of inhibitor tested. “n.d.” means not determined. • b) The HGD assay: With the HGD assay HPPD activity was measured at room temperature by adding appropriate amounts of HPPD to a solution of 200 mM Tris-HCl pH 7.6, 10 mM ascorbate, 20 μM FeSO4, 650 units of catalase, 8 μg HGA dioxygenase (HGA: homogentisate) and 600 μM HPP in a total volume of 1 ml. Initial reaction rates in the absence or presence of inhibitors were determined from the increase in absorbance at 318 nm due to the formation of maleylacetoacetate (ε318=11,900 M−1 cm-1). pI50-values (the negative log value of the concentration of inhibitor necessary to inhibit 50% of the enzyme activity in molar concentration were determined from dose-response plots of HPPD activity versus inhibitor concentration tested using the 4 Parameter Logistic Model or Sigmoidal Dose-Response Model of the ID Business Solutions Ltd. XLfit software suite. Due to the UV absorption of the HPPD inhibitors tested, inhibitor concentrations >100 μM could not be tested. The result “<4” means that the inhibition at 100 μM inhibitor concentration was lower than 25% and the pI50-value could therefore not be precisely calculated within in the range of concentration of inhibitor tested. “n.d.” means not determined. The HGD assay allowed to continuously follow HPPD-catalyzed HGA formation over time was therefore used to determine the inhibition type of the HPPD inhibitors tested. […] When in the presence of an inhibitor the HPPD activity was inhibited but the inhibition was found not to […] in a time-dependent manner, the inhibitor was called reversible (abbreviation “rev”). […]

[2] = tested on: Pseudomonas fluorescens HPPD protein; test: HGD assay: HPPD activity coupled to HGA dioxygenase, pI50 and type of inhibition (time-course); assay type: biochemical; conditions: for tolerance (pI50) Cmpd. 2: inhibitor Cmpd. 2
Method: as §1, §2

| Molecule | Activity DeltaE/24 min μg Protein [1] [DeltaE/24 min μg Protein] | tolerance (pI50) DKN [1] | tolerance (pI50) MST [1] | tolerance (pI50) TBT [1] | mechanism of inhibition by Cmpd. 2, time-course of inhibition [2] | tolerance (pI50) Cmpd. 2 ([2]; HGD assay) | tolerance (pI50) Cmpd. 2 [1] | tolerance (pI50) Cmpd. 1 ([2]; inhibitor Cmpd. 1, HGD assay) | tolerance (pI50) Cmpd. 4 ([2]; inhibitor Cmpd. 4, HGD assay) |
| --- | --- | --- | --- | --- | --- | --- | --- | --- | --- |
| B1 | 0.50 | 3.3 | 3.7 | 4.8 | fully reversible inhibitor | 6.2 | – | – | – |
| B2 | 0.56 | <2.5 | 3.6 | 4.6 | – | – | 5.7 | – | – |
| B3 | 0.09 | 3.0 | 3.7 | 4.5 | fully reversible inhibitor | – | 5.0 | – | – |
| B4 | 0.09 | 5.5 | >5.6 | – | – | – | – | – | – |
| B5 | 0.76 | >5.6 | >5.6 | >5.6 | – | – | >5.6 | – | – |
| B6 | 0.50 | 3.1 | 3.7 | 4.8 | fully reversible inhibitor | 5.9 | – | 5.5 | 6.9 |
| B7 | 0.41 | <2.5 | 3.6 | 4.6 | – | – | 5.7 | – | – |
| B8 | 0.17 | 5.1 | 5.5 | >5.6 | – | – | >5.6 | – | – |
| B9 | 0.16 | 3.3 | 3.7 | 4.8 | – | – | 4.9 | – | – |
| B10 | 0.08 | <2.5 | 3.0 | 3.9 | fully reversible inhibitor | 5.3 | – | – | – |
| B11 | 0.12 | 2.8 | 3.4 | 4.7 | fully reversible inhibitor | 5.5 | – | – | – |
| B12 | 0.52 | <2.5 | 3.5 | 4.5 | – | – | 5.6 | – | – |
